Measurements from publication PMC7504044 (International Journal of Molecular Sciences, 2020).

Assays:
[1] = target: emerin (Caenorhabditis elegans) (UniProt O01971); details: cited from earlier work
[2] = target: the molecule itself; experiment: SPR; GST–emerin coupled by EDC–NHS to polyethylene glycol/carboxyl sensor slides (Reichert SR7500DC); five increasing concentrations of analyte in PBST at 40 µL/min, 150 s association, 150 s dissociation, no regeneration
SPR = target: the molecule itself; experiment: SPR

emerin (from UniProt O01971)
Kd [1]: 14 nM

B1: GST–emerin (full-length emerin fused to GST) (natural protein, UniProt P50402 1-254, looked up)
chain: MDNYADLSDTELTTLLRRYNIPHGPVVGSTRRLYEKKIFEYETQRRRLSPPSSSAASSYSFSDLNSTRGDADMYDLPKKEDALLYQSKGYNDDYYEESYFTTRTYGEPESAGPSRAVRQSVTSFPDADAFHHQVHDDDLLSSSEEECKDRERPMYGRDSAYQSITHYRPVSASRSSLDLSYYPTSSSTSFMSSSSSSSSWLTRRAIRPENRAPGAGLGQDRQVPLWGQLLLFLVFVIVLFFIYHFMQAEEGNPF
notes: emerin, full-length; also called pGST–emerin; source: E. coli BL21, purified (glutathione-Sepharose)
Kd [2]: 1.87 nM
koff (SPR): 0.00154 s⁻¹
